B1: MadA(M17A), malonyl-ACP decarboxylase (yiiD gene product) of E. coli (enzyme, UniProt P0ADQ2 1-329, looked up)
chain: MSQLPGLSRETRESIAAYHLRVPQTEEELERYYQFRWEMLRKPLHQPKGSERDAWDAMAHHQMVVDEQGNLVAVGRLYINADNEASIRFMAVHPDVQDKGLGTLMAMTLESVARQEGVKRVTCSAREDAVEFFAKLGFVNQGEITTPTTTPIRHFLMIKPVATLDDILHRGDWCAQLQQAWYEHIPLSEKMGVRIQQYTGQKFITTMPETGNQNPHHTLFAGSLFSLATLTGWGLIWLMLRERHLGGTIILADAHIRYSKPISGKPHAVADLGALSGDLDRLARGRKARVQMQVEIFGDETPGAVFEGTYIVLPAKPFGPYEEGGNEEE
notes: YiiD (MadA) of E. coli, amplified from Top10 genomic DNA, plasmid pPJ604 with M17A to remove a second start site; Cleavage of the His6 tag is reported only for ACP and MadA^C; MadA^C is said to end at residue 329, so the whole protein probably spans 1-329; also called MadA(M17A) mutant
B2: MadA^C, carboxy-terminal hot dog domain of E. coli MadA (domain or fragment, UniProt P0ADQ2 171-329, looked up)
chain: GDWCAQLQQAWYEHIPLSEKMGVRIQQYTGQKFITTMPETGNQNPHHTLFAGSLFSLATLTGWGLIWLMLRERHLGGTIILADAHIRYSKPISGKPHAVADLGALSGDLDRLARGRKARVQMQVEIFGDETPGAVFEGTYIVLPAKPFGPYEEGGNEEE
notes: MadA (YiiD) of E. coli, amino acids 171 to 329, amplified from Top10 genomic DNA
B3: acetyl-acyl carrier protein (acetyl-ACP) (natural protein, UniProt P0A6A8 1-78, looked up)
chain: MSTIEERVKKIIGEQLGVKQEEVTNNASFVEDLGADSLDTVELVMALEEEFDTEIPDEEAEKITTVQAAIDYINGHQA
modifications: prosthetic group with attached acetyl chain (acetyl thioester), made from apo-ACP and acetyl-CoA with [ACP]synthase
B4: acyl carrier protein (ACP) (natural protein, UniProt P0A6A8 1-78, looked up)
chain: B3 chain
notes: acyl carrier protein; The ACP disulfide dimers seen in the sedimentation analysis imply that at least part of the preparation carries the phosphopantetheine thiol (holo-ACP)

Legend:
[1] = biological target: the molecule itself; test: AUC; sedimentation analysis (methods: sedimentation velocity, 50,000 rpm, interference optics), 0.02 M Tris pH 7.5, 0.5 M NaCl, 20 °C, no reducing agents
[2] = biological target: the molecule itself; test: SEC; gel filtration chromatography of the purified recombinant protein
[3] = biological target: GlmU, glucosamine-1-phosphate N-acetyl transferase/N-acetyl-glucosamine-1-phosphate uridylyltransferase of E. … (E. coli, UniProt P0ACC7 1-456); test: cell-based or functional assay
[4] = biological target: B1; test: AUC; sedimentation analysis (methods: sedimentation velocity, 50,000 rpm, interference optics), 0.02 M Tris pH 7.5, 0.5 M NaCl, 20 °C, no reducing agents; conditions: both partners purified

GlmU, glucosamine-1-phosphate N-acetyl transferase/N-acetyl-glucosamine-1-phosphate uridylyltransferase of E. …, sequence (P0ACC7 whole entry): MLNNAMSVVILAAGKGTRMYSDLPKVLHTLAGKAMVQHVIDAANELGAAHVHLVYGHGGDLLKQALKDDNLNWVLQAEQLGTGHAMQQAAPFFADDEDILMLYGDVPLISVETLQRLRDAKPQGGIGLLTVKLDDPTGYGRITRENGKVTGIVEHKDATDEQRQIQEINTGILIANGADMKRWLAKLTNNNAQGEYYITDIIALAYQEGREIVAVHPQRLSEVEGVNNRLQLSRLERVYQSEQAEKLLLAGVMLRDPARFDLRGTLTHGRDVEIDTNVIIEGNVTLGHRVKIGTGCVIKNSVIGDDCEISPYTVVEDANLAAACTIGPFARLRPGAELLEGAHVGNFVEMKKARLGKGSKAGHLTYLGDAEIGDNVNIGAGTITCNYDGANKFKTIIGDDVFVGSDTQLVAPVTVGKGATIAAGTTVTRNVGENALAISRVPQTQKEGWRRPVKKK

B1 was tested, and the “stoichiometry N” value [1] was 2.

In the case of B2, the “stoichiometry N” value [2] is reported as 2.

With B3 the “apparent KM of the GlmU acetyltransferase half reaction for [^14C]acetyl-ACP (radiochemical TLC assay, 0–32 μM acetyl-ACP)” value [3] was 20 µM.

B4 was tested, and the “stoichiometry N” value [4] was 2 ACP per MadA dimer.
